± gives the standard deviation of the averaged measurements.
System: ATP
Experiment: switch fluorescence ratio, 500 uM ATP over buffer (Cy3 cluster intensity, sum of 5 cycles each) (fold (ratio)); higher = stronger signal-on switching upon ATP binding; sequences stand for … in TCGTCGGCAGCGTCAGATGTGTATAAGAGACAGTTTTTTTTTTTTTTTTTTTTTTTTT…TC
Conditions: aptamer strand: ATP DNA aptamer (quencher-CACCTGGGGGAGTATTGCGGAGGAAGG + anchor), 100 nM annealed; ATP concentration: 500 uM
Summary of the method: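 Switching-strand clusters labelled with Cy3 on a modified Illumina MiSeq flow-cell were annealed to 100 nM quencher-labelled ATP aptamer, imaged in selection buffer, and re-imaged after 15 min with 500 uM ATP at 22 °C. This was done over five cycles with NaOH stripping and re-annealing in between. The fluorescence ratio is summed target-cycle over summed buffer-cycle Cy3 intensity per cluster, averaged per switch-domain sequence, excluding clusters outside 100-1000 RFU.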
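Note: ATP exposure 15 min at 22 °C before imaging.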

Sequence | switch fluorescence ratio
AATGTTGTCC | 1.007 ± 0.0094
AATGTTTGTT | 0.971 ± 0.015
AATTAAAAGT | 0.989 ± 0.017
AATTAAAGTT | 0.98603 ± 0.00086
AATTAACGCG | 0.993 ± 0.023
AATTAAGAGA | 1.04 ± 0.017
AATTAAGGGG | 0.997 ± 0.029
AATTAAGGGT | 0.9881 ± 0.0058
AATTAAGTGT | 0.969 ± 0.021
AATTAATCCA | 0.997 ± 0.017
AATTACGTAA | 1.06 ± 0.012
AATTACGTTT | 1.06 ± 0.062
AATTACTTTT | 1.02 ± 0.02
AATTAGCAAG | 1.04 ± 0.018
AATTAGCTGT | 0.9743 ± 0.0085
AATTAGGGGG | 0.981 ± 0.064
AATTAGTCTA | 1.01 ± 0.03
AATTATTGCA | 0.997 ± 0.043
AATTATTGTT | 0.996 ± 0.017
AATTATTTTG | 1 ± 0.045
AATTATTTTT | 0.9867 ± 0.0061
AATTCAACAC | 1.05 ± 0.038
AATTCATAGT | 0.978 ± 0.018
AATTCCGATA | 1.02 ± 0.026
AATTCGGCTT | 0.978 ± 0.0088

Sequence | switch fluorescence ratio
AATTCGGGCG | 1.02 ± 0.071
AATTCGTCGG | 1.02 ± 0.045
AATTCTATAG | 0.995 ± 0.033
AATTGAGGGC | 1.02 ± 0.035
AATTGATCGT | 0.982 ± 0.024
AATTGCATAA | 0.996 ± 0.04
AATTGCCTGT | 0.933 ± 0.071
AATTGCTTGT | 0.978 ± 0.02
AATTGGCGTA | 1.01 ± 0.034
AATTGGGGGG | 0.998 ± 0.04
AATTGGTGTT | 0.985 ± 0.025
AATTGTAGGC | 0.976 ± 0.036
AATTGTTATG | 0.999 ± 0.039
AATTGTTGGG | 1.01 ± 0.041
AATTTAAGAA | 0.971 ± 0.013
AATTTACACT | 1.06 ± 0.014
AATTTAGGAG | 1.01 ± 0.051
AATTTAGGTT | 0.993 ± 0.03
AATTTAGTTT | 0.978 ± 0.026
AATTTCACTT | 1.003 ± 0.0047
AATTTCGGAT | 0.9595 ± 0.0035
AATTTCGGGG | 0.999 ± 0.017
AATTTGACAT | 1.03 ± 0.02
AATTTGATGG | 0.995 ± 0.013
AATTTGATGT | 1.005 ± 0.0056

Sequence | switch fluorescence ratio
AATTTGCGGC | 0.982 ± 0.029
AATTTGCGTT | 0.999 ± 0.013
AATTTGGAAG | 0.981 ± 0.027
AATTTGGGCG | 1 ± 0.04
AATTTGGTAC | 1.068 ± 0.0027
AATTTGGTCG | 0.978 ± 0.03
AATTTGGTGC | 1.011 ± 0.0064
AATTTGTCCA | 0.98 ± 0.015
AATTTGTGGA | 0.9855 ± 0.007
AATTTGTGGC | 0.995 ± 0.034
AATTTTATGG | 1.01 ± 0.022
AATTTTCGGA | 0.991 ± 0.013
AATTTTCTGC | 1.01 ± 0.053
AATTTTGAGG | 0.984 ± 0.034
AATTTTGCGG | 1.01 ± 0.038
AATTTTTAAA | 0.968 ± 0.038
AATTTTTAAC | 1 ± 0.028
AATTTTTAGG | 0.98099 ± 2.5e-05
AATTTTTCAT | 0.977 ± 0.028
AATTTTTCCG | 1.05 ± 0.036
ACAAAACTC | 1.27 ± 0.37
ACAAACGCTG | 1.28 ± 0.0027
ACAAAGCGCC | 1.06 ± 0.015
ACAAATGCAA | 1.12 ± 0.037
ACAAATGCAG | 1.01 ± 0.013

Sequence | switch fluorescence ratio
ACAAATTGCG | 0.991 ± 0.027
ACAAGAGATA | 1.01 ± 0.015
ACAAGCTGAC | 1.27 ± 0.15
ACAAGGATA | 1.006 ± 0.0077
ACAAGGTATA | 1.15 ± 0.15
ACAAGTATGT | 1.02 ± 0.041
ACAAGTGATC | 1.076 ± 0.0017
ACAATCGAGC | 0.988 ± 0.047
ACAATCGTTT | 1.01 ± 0.014
ACAATCTAAA | 1.033 ± 0.0091
ACACAGTACT | 1.37 ± 0.09
ACACATCCGG | 1.06 ± 0.015
ACACATCGGA | 1.005 ± 0.0057
ACACCACGTT | 1.56 ± 0.057
ACACCCCCGT | 1.67 ± 0.19
ACACCCTTGG | 1.08 ± 0.098
ACACCTGAGT | 1.16 ± 0.011
ACACGCCCAA | 1.12 ± 0.069
ACACGGCGGC | 1.07 ± 0.033
ACACGGGGCG | 0.984 ± 0.066
ACACGGGGCT | 1.01 ± 0.051
ACACGGGTGC | 1.74 ± 0.062
ACACGTGCCC | 1 ± 0.028
ACACTAGGTT | 1.06 ± 0.051
ACACTCTTGA | 1.03 ± 0.025

Sequence | switch fluorescence ratio
ACACTGCCAT | 1.16 ± 0.032
ACAGCAGTTG | 1.04 ± 0.042
ACAGCCCGGA | 1.07 ± 0.04
ACAGCGCCGG | 1.018 ± 0.002
ACAGCGGACG | 1.02 ± 0.031
ACAGCGTGGG | 1.041 ± 0.0097
ACAGCTGAAG | 1.002 ± 0.0066
ACAGCTGAGC | 0.999 ± 0.0079
ACAGGAAGGG | 1 ± 0.01
ACAGGATGGT | 0.998 ± 0.024
ACAGGCAGGA | 1.01 ± 0.022
ACAGGCCAGG | 1.23 ± 0.082
ACAGGGGAAT | 1.01 ± 0.012
ACAGGGGTAA | 1.01 ± 0.013
ACAGGGGTTA | 1.25 ± 0.4
ACAGGGGTTT | 1.37 ± 0.7
ACAGGGTGCA | 1.03 ± 0.052
ACAGGGTTAC | 0.991 ± 0.027
ACAGGTATTA | 0.996 ± 0.017
ACAGGTCATT | 1.01 ± 0.034
ACAGTATGGC | 0.952 ± 0.041
ACAGTATGGG | 1.03 ± 0.021
ACAGTCAAGG | 1.02 ± 0.035
ACAGTCAGAT | 1.057 ± 0.0067
ACAGTCATGG | 1.021 ± 0.0092

Sequence | switch fluorescence ratio
ACAGTCTCTG | 1.03 ± 0.018
ACAGTGCCGG | 1.02 ± 0.055
ACAGTGCGGC | 0.961 ± 0.035
ACAGTTCCCC | 1.13 ± 0.25
ACAGTTGTTA | 0.98717 ± 0.00059
ACAGTTTTGC | 0.985 ± 0.02
ACATAAAGGG | 1.03 ± 0.024
ACATAATTTC | 1.03 ± 0.02
ACATACCGTG | 1.21 ± 0.038
ACATACGAGT | 1.38 ± 0.029
ACATACGCAA | 4.63 ± 0.56
ACATATGGTA | 0.9801 ± 0.0085
ACATATTGTG | 1.03 ± 0.062
ACATCAGATG | 1.005 ± 0.0023
ACATCTTCGA | 0.97 ± 0.046
ACATGAATGG | 0.969 ± 0.016
ACATGATCTC | 0.993 ± 0.021
ACATGATGGC | 1.05 ± 0.018
ACATGATTCG | 0.99 ± 0.03
ACATGATTGC | 1.029 ± 0.0054
ACATGATTGG | 0.97 ± 0.037
ACATGCTACG | 1.05 ± 0.034
ACATGGGGGG | 0.993 ± 0.038
ACATGGGTGC | 1.11 ± 0.063
ACATGTTGCC | 1.02 ± 0.0074

Sequence | switch fluorescence ratio
ACATGTTGTT | 0.993 ± 0.024
ACATTCCAGT | 1.14 ± 0.15
ACATTCGCGT | 1.05 ± 0.018
ACATTCTACG | 1.25 ± 0.017
ACATTTGACG | 1.05 ± 0.017
ACATTTGGGA | 0.964 ± 0.026
ACATTTGTGG | 1.01 ± 0.021
ACCAAATAAG | 1.02 ± 0.023
ACCAATAGGA | 1.01 ± 0.021
ACCAATATAT | 0.996 ± 0.033
ACCACGAATG | 1.025 ± 0.0051
ACCACGCGGG | 1.01 ± 0.066
ACCAGATCAC | 1.04 ± 0.019
ACCAGCCGGG | 1.09 ± 0.062
ACCAGGGCAT | 1.067 ± 0.0076
ACCAGGTCTA | 1.07 ± 0.017
ACCAGGTGGG | 2.75 ± 0.75
ACCAGTAGAC | 1.038 ± 0.0074
ACCAGTCTCG | 1.07 ± 0.08
ACCAGTGAGT | 0.969 ± 0.011
ACCAGTGCTG | 1 ± 0.04
ACCATAATGG | 1.021 ± 0.01
ACCATACTGC | 1.23 ± 0.12
ACCATCGATA | 1.03 ± 0.024
ACCATGCGTC | 0.99 ± 0.031

Sequence | switch fluorescence ratio
ACCCAAAATT | 1.05 ± 0.033
ACCCAATTTT | 1.03 ± 0.036
ACCCAGCGCT | 1.04 ± 0.023
ACCCCGGGCA | 1.08 ± 0.018
ACCCCTTGAT | 1.04 ± 0.023
ACCCGAGGTC | 1.09 ± 0.015
ACCCGATTGC | 1.29 ± 0.044
ACCCGCCAGC | 3.96 ± 1.6
ACCCTCAAAA | 1.31 ± 0.031
ACCCTGCGAG | 1.05 ± 0.032
ACCGAGATCA | 1.03 ± 0.014
ACCGAGGAGG | 0.961 ± 0.026
ACCGATTGTT | 1.017 ± 0.0016
ACCGCGAAGG | 1.025 ± 0.0058
ACCGCGCGAC | 2.49 ± 0.053
ACCGGGATGC | 3.66 ± 0.26
ACCGGGCTGC | 1.06 ± 0.024
ACCGGTTAAC | 1.02 ± 0.035
ACCGGTTATA | 1.03 ± 0.038
ACCGGTTTTC | 0.984 ± 0.023
ACCGTATGAC | 1.05 ± 0.068
ACCGTATGGC | 1.02 ± 0.023
ACCGTCATTT | 1.05 ± 0.046
ACCGTCTCAG | 1.05 ± 0.026
ACCGTTGTTC | 1.04 ± 0.02

Reference: the supplement of paper PMC10126150
